Data reported in patent US20090226370A1.

Target: RFP-fused mouse full length COMP expressed in RCS cells (pDsRed1-N1-COMP) (mouse) (UniProt Q9R0G6)
Assay: cell-based or functional assay

Chain of UniProt Q9R0G6 (Q9R0G6 20-755): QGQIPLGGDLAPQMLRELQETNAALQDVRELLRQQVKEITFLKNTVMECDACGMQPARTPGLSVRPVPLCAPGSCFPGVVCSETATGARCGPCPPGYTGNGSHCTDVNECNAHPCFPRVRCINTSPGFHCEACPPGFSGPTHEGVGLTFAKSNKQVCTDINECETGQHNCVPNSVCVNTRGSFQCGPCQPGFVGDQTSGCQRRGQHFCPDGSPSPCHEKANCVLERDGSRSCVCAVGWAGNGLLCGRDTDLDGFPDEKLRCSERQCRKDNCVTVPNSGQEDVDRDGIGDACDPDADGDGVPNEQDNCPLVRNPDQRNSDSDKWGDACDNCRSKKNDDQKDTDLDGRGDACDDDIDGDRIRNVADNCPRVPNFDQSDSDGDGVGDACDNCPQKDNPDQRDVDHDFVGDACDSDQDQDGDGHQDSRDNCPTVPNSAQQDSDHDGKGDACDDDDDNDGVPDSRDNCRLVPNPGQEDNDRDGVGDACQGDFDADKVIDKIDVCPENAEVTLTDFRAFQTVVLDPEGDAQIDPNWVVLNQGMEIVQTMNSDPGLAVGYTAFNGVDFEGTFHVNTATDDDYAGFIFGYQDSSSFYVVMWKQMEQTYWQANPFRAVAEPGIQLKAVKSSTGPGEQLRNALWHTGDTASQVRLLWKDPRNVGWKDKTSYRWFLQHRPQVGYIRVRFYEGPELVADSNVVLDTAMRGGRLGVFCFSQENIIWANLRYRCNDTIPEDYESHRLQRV

**Q.** How did the enhancement of GEP-mediated stimulation of RCS cell proliferation by coexpression of COMP, day 2 (viable cell count) turn out when “GFP-linked GEP expressed in RCS cells (pEGFP-GEP) (ligand)” was run?
**A.** Its enhancement of GEP-mediated stimulation of RCS cell proliferation by coexpression of COMP, day 2 (viable cell count) is 2.3 fold.

**Q.** What about the enhancement of GEP-mediated stimulation of RCS cell proliferation by coexpression of COMP, day 3 (viable cell count) of the same substance?
**A.** The enhancement of GEP-mediated stimulation of RCS cell proliferation by coexpression of COMP, day 3 (viable cell count) was 2.1 fold.

**Q.** What about the enhancement of GEP-mediated stimulation of RCS cell proliferation by coexpression of COMP, day 4 (viable cell count) of the same substance?
**A.** Its enhancement of GEP-mediated stimulation of RCS cell proliferation by coexpression of COMP, day 4 (viable cell count) is 1.7 fold.

**Q.** What about the enhancement of GEP-mediated stimulation of RCS cell proliferation by coexpression of COMP, day 5 (viable cell count) of the same substance?
**A.** The enhancement of GEP-mediated stimulation of RCS cell proliferation by coexpression of COMP, day 5 (viable cell count) was 1.5 fold.
